Laboratory results as given in IntAct's records for PubMed 18320024.

B1: Tetratricopeptide repeat protein 4 (Homo sapiens), O95801 (parent)
chain: MEQPGQDPTSDDVMDSFLEKFQSQPYRGGFHEDQWEKEFEKVPLFMSRAPSEIDPRENPDLACLQSIIFDEERSPEEQAKTYKDEGNDYFKEKDYKKAVISYTEGLKKKCADPDLNAVLYTNRAAAQYYLGNFRSALNDVTAARKLKPCHLKAIIRGALCHLELKHFAEAVNWCDEGLQIDAKEKKLLEMRAKADKLKRIEQRDVRKANLKEKKERNQNEALLQAIKARNIRLSEAACEDEDSASEGLGELFLDGLSTENPHGARLSLDGQGRLSWPVLFLYPEYAQSDFISAFHEDSRFIDHLMVMFGETPSWDLEQKYCPDNLEVYFEDEDRAELYRVPAKSTLLQVLQHQRYFVKALTPAFLVCVGSSPFCKNFLRGRKVYQIR
partner: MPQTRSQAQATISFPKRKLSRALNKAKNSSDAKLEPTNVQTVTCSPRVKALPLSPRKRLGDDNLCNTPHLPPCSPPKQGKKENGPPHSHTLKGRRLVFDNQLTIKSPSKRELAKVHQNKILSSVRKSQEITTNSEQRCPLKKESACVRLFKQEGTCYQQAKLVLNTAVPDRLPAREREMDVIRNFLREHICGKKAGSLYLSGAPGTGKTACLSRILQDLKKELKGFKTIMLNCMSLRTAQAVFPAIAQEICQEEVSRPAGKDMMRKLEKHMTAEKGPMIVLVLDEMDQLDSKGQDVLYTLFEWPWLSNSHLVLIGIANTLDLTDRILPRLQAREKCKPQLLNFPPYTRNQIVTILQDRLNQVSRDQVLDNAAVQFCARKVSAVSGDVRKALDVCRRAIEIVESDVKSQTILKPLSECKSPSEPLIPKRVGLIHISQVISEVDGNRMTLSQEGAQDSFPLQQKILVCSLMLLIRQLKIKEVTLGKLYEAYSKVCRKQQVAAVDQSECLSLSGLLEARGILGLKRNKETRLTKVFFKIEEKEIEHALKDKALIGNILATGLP
B2: Tetratricopeptide repeat protein 4 (Homo sapiens), O95801 (parent)
chain: B1 chain

Variants of: B1
Settings: with cdc6_human CDC6, Q99741

| Variant | effect of a mutation on the interaction |
| --- | --- |
| MEQPGQDPTSDDVMDSFLEKFQSQPYRGGFHEDQWEKEFEKDPLFMSRAPSEIDPRENPDLACLQSIIFDEERSPEEQAKTYKDEGNDYFKEKDYKKAVISYTEGLKKKCADPDLNAVLYTNRAAAQYYLGNFRSALNDVTAARKLKPCHLKAIIRGALCHLELKHFAEAVNWCDEGLQIDAKEKKLLEMRAKADKLKRIEQRDVRKANLKEKKERNQNEALLQAIKARNIRLSEAACEDEDSASEGLGELFLDGLSTENPHGARLSLDGQGRLSWPVLFLYPEYAQSDFISAFHEDSRFIDHLMVMFGETPSWDLEQKYCPDNLEVYFEDEDRAELYRVPAKSTLLQVLQHQRYFVKALTPAFLVCVGSSPFCKNFLRGRKVYQIR [V42D] | with no effect |
| MEQPGQDPTSDDVMDSFLEKFQSQPYRGGFHEDQWEKEFEKVPLFMSRAPSEIDPRENPDLACLQSIIFDEERSPEEQAKTYKDEGNDYFKEKDYKKAVISYTEGLKKKCADPDLNAVLYTNRAAAQYYLGNFRSALNDVTAARKLKPCHLKAIIRGALCHLELKHFAEAVNWCDEGLQIDAKEKKLLEMRAKADKLKRIEQRDVRKANLKEKKERKQNEALLQAIKARNIRLSEAACEDEDSASEGLGELFLDGLSTENPHGARLSLDGQGRLSWPVLFLYPEYAQSDFISAFHEDSRFIDHLMVMFGETPSWDLEQKYCPDNLEVYFEDEDRAELYRVPAKSTLLQVLQHQRYFVKALTPAFLVCVGSSPFCKNFLRGRKVYQIR [N217K] | disrupting interaction strength |
| MEQPGQDPTSDDVMDSFLEKFQSQPYRGGFHEDQWEKEFEKVPLFMSRAPSEIDPRENPDLACLQSMIFDEERSPEEQAKTYKDEGNDYFKEKDYKKAVISYTEGLKKKCADPDLNAVLYTNRAAAQYYLGNFRSALNDVTAARKLKPCHLKAIIRGALCHLELKHFAEAVNWCDEGLQIDAKEKKLLEMRAKADKLKRIEQRDVRKANLKEKKERNQNEALLQAIKARNIRLSEAACEDEDSASEGLGELFLDGLSTENPHGARLSLDGQGRLSWPVLFLYPEYAQSDFISAFHEDSRFIDHLMVMFGETPSWDLEQKYCPDNLEVYFEDEDRAELYRVPAKSTLLQVLQHQRYFVKALTPAFLVCVGSSPFCKNFLRGRKVYQIR [I67M] | with no effect |
| MEQPGQDPTSDDVMDSFLEKFQSQPYRGGFHEDQWEKEFEKVPLFMSRAPSEIDPRENPDLACLQSIIFDEERSPEAQAKTYKDEGNDYFKEKDYKKAVISYTEGLKKKCADPDLNAVLYTNRAAAQYYLGNFRSALNDVTAARKLKPCHLKAIIRGALCHLELKHFAEAVNWCDEGLQIDAKEKKLLEMRAKADKLKRIEQRDVRKANLKEKKERNQNEALLQAIKARNIRLSEAACEDEDSASEGLGELFLDGLSTENPHGARLSLDGQGRLSWPVLFLYPEYAQSDFISAFHEDSRFIDHLMVMFGETPSWDLEQKYCPDNLEVYFEDEDRAELYRVPAKSTLLQVLQHQRYFVKALTPAFLVCVGSSPFCKNFLRGRKVYQIR [E77A] | disrupting interaction strength |

Variants of: B2
Settings: with hs90b_human HSP90AB1, P08238
Chain of hs90b_human HSP90AB1, P08238 (P08238 whole entry): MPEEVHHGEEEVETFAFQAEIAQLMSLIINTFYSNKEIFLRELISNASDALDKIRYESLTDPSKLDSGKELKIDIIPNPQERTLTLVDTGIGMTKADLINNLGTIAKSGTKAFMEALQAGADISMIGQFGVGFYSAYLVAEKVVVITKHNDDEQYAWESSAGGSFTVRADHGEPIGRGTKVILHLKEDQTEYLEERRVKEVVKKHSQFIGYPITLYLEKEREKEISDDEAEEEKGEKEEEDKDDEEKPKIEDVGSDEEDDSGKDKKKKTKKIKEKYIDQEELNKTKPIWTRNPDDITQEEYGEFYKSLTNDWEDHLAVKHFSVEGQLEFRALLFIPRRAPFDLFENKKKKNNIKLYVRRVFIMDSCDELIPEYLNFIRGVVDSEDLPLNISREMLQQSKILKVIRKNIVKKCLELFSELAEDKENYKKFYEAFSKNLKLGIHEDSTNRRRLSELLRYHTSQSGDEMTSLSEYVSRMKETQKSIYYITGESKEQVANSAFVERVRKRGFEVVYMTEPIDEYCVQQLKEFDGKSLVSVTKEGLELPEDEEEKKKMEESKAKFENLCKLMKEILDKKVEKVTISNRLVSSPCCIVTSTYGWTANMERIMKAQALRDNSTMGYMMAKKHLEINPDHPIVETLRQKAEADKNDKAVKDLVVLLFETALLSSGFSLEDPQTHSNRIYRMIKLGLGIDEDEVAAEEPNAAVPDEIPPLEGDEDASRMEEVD

| Variant | effect of a mutation on the interaction |
| --- | --- |
| MEQPGQDPTSDDVMDSFLEKFQSQPYRGGFHEDQWEKEFEKDPLFMSRAPSEIDPRENPDLACLQSIIFDEERSPEEQAKTYKDEGNDYFKEKDYKKAVISYTEGLKKKCADPDLNAVLYTNRAAAQYYLGNFRSALNDVTAARKLKPCHLKAIIRGALCHLELKHFAEAVNWCDEGLQIDAKEKKLLEMRAKADKLKRIEQRDVRKANLKEKKERNQNEALLQAIKARNIRLSEAACEDEDSASEGLGELFLDGLSTENPHGARLSLDGQGRLSWPVLFLYPEYAQSDFISAFHEDSRFIDHLMVMFGETPSWDLEQKYCPDNLEVYFEDEDRAELYRVPAKSTLLQVLQHQRYFVKALTPAFLVCVGSSPFCKNFLRGRKVYQIR [V42D] | with no effect |
| MEQPGQDPTSDDVMDSFLEKFQSQPYRGGFHEDQWEKEFEKVPLFMSRAPSEIDPRENPDLACLQSIIFDEERSPEAQAKTYKDEGNDYFKEKDYKKAVISYTEGLKKKCADPDLNAVLYTNRAAAQYYLGNFRSALNDVTAARKLKPCHLKAIIRGALCHLELKHFAEAVNWCDEGLQIDAKEKKLLEMRAKADKLKRIEQRDVRKANLKEKKERNQNEALLQAIKARNIRLSEAACEDEDSASEGLGELFLDGLSTENPHGARLSLDGQGRLSWPVLFLYPEYAQSDFISAFHEDSRFIDHLMVMFGETPSWDLEQKYCPDNLEVYFEDEDRAELYRVPAKSTLLQVLQHQRYFVKALTPAFLVCVGSSPFCKNFLRGRKVYQIR [E77A] | decreasing interaction strength |

Variants of: B2
Settings: with hsp7c_human HSPA8, P11142
Chain of hsp7c_human HSPA8, P11142 (P11142 whole entry, looked up): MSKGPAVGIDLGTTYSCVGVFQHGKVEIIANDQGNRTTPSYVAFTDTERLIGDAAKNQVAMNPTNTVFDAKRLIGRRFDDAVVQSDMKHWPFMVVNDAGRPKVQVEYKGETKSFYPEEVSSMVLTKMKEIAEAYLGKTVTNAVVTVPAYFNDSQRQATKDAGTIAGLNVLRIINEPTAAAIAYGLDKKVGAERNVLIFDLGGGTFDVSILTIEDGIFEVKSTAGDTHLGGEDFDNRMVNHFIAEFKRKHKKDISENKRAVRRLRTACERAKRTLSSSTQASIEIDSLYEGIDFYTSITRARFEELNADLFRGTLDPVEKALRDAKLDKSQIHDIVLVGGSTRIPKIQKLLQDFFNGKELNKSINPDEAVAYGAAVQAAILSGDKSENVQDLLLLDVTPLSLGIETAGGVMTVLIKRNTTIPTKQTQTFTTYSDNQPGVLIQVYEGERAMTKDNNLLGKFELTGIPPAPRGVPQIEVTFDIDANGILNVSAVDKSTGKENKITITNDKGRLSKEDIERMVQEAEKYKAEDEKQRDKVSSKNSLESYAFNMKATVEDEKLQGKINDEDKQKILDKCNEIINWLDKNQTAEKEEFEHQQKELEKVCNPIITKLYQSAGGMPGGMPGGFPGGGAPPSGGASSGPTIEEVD

| Variant | effect of a mutation on the interaction |
| --- | --- |
| MEQPGQDPTSDDVMDSFLEKFQSQPYRGGFHEDQWEKEFEKDPLFMSRAPSEIDPRENPDLACLQSIIFDEERSPEEQAKTYKDEGNDYFKEKDYKKAVISYTEGLKKKCADPDLNAVLYTNRAAAQYYLGNFRSALNDVTAARKLKPCHLKAIIRGALCHLELKHFAEAVNWCDEGLQIDAKEKKLLEMRAKADKLKRIEQRDVRKANLKEKKERNQNEALLQAIKARNIRLSEAACEDEDSASEGLGELFLDGLSTENPHGARLSLDGQGRLSWPVLFLYPEYAQSDFISAFHEDSRFIDHLMVMFGETPSWDLEQKYCPDNLEVYFEDEDRAELYRVPAKSTLLQVLQHQRYFVKALTPAFLVCVGSSPFCKNFLRGRKVYQIR [V42D] | decreasing interaction strength |
| MEQPGQDPTSDDVMDSFLEKFQSQPYRGGFHEDQWEKEFEKVPLFMSRAPSEIDPRENPDLACLQSIIFDEERSPEAQAKTYKDEGNDYFKEKDYKKAVISYTEGLKKKCADPDLNAVLYTNRAAAQYYLGNFRSALNDVTAARKLKPCHLKAIIRGALCHLELKHFAEAVNWCDEGLQIDAKEKKLLEMRAKADKLKRIEQRDVRKANLKEKKERNQNEALLQAIKARNIRLSEAACEDEDSASEGLGELFLDGLSTENPHGARLSLDGQGRLSWPVLFLYPEYAQSDFISAFHEDSRFIDHLMVMFGETPSWDLEQKYCPDNLEVYFEDEDRAELYRVPAKSTLLQVLQHQRYFVKALTPAFLVCVGSSPFCKNFLRGRKVYQIR [E77A] | with no effect |
